Patent US20030165488A1
Like-named read-outs stand apart in the source and are kept apart here.

How the values were obtained:
[1] = system: T1, hCaspase-12 (recombinant human caspase-12 containing the Ser-205 to Gly mutation), 6-His fusion protein expressed in E. coli
T1 sequence: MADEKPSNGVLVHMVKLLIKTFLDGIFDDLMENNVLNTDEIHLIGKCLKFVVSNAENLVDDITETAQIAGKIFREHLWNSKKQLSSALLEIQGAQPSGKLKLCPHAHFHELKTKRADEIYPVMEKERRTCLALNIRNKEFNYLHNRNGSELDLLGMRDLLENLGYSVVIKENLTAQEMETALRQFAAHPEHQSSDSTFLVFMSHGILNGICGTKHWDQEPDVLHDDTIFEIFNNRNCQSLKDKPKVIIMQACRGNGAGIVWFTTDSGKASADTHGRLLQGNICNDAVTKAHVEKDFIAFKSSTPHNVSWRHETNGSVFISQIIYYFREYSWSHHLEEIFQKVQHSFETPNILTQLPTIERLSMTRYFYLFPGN

[2] = system: T2, ΔCARD caspase-12 (RIK-5), 6-His fusion protein expressed in E. coli
T2 sequence: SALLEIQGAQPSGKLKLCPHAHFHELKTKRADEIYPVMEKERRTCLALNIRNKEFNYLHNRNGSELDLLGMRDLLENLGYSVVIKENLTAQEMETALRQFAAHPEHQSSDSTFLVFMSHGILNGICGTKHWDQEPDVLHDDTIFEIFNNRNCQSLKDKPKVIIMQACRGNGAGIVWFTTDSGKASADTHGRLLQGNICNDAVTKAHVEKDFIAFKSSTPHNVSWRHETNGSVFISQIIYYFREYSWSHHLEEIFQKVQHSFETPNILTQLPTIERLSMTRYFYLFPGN

[3] = target: DEVD-R110 substrate (Homogeneous Caspase Assay, Roche Biochemicals); test: cell-based or functional assay
[4] = target: T3, DEVD-R110 substrate (Homogeneous Caspase Assay, Roche Biochemicals)
T3 chain: DEVD

[5] = target: T4, procaspase-3 immunoprecipitated from SH-EP cell lysates, P42574
T4 chain: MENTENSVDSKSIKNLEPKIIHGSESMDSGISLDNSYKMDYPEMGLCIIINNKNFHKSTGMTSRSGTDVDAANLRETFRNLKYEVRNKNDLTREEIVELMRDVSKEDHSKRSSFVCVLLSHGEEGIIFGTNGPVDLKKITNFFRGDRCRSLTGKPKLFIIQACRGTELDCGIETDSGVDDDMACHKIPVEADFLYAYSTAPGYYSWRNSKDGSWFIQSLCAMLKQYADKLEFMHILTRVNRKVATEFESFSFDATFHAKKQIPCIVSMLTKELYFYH

calpain II (Calbiochem)
cleavage of human caspase-12, Western blot [1]: calpain II cleaves both hCaspase-12 and the ?CARD variant and that this cleavage is calcium dependent | cleavage of human caspase-12, Western blot [2]: calpain II cleaves both hCaspase-12 and the ?CARD variant and that this cleavage is calcium dependent

control (non-caspase protein) preparation
Measured fluorescence intensity (RFU), free rhodamine-110 released from DEVD-R110 [3]: 31 RFU

B1: ΔCARD caspase-12 (RIK-5), 6-His fusion protein expressed in E. coli (protein)
chain: T2 sequence
Measured fluorescence intensity (RFU), free rhodamine-110 released from DEVD-R110 [4]: 445 for ?CARD

B2: hCaspase-12 (recombinant human caspase-12 containing the Ser-205 to Gly mutation), 6-His fusion protein expressed in E. coli (protein)
chain: T1 sequence
Measured fluorescence intensity (RFU), free rhodamine-110 released from DEVD-R110 [4]: 807 for hCaspase-12 | procaspase-3 processing, Western blot with antibody to full-length caspase-3 [5]: when procaspase-3 was incubated with recombinant human caspase-12 or the ?CARD variant, lower molecular weight bands indicative of cleaved mature subunits were observed
